First the molecules themselves.
B1: Full-length Ndel1 with N-terminal HaloTag and C-terminal 6X-His tag (natural protein, UniProt Q9GZM8 1-345, looked up)
chain: MDGEDIPDFSSLKEETAYWKELSLKYKQSFQEARDELVEFQEGSRELEAELEAQLVQAEQRNRDLQADNQRLKYEVEALKEKLEHQYAQSYKQVSVLEDDLSQTRAIKEQLHKYVRELEQANDDLERAKRATIVSLEDFEQRLNQAIERNAFLESELDEKESLLVSVQRLKDEARDLRQELAVRERQQEVTRKSAPSSPTLDCEKMDSAVQASLSLPATPVGKGTENTFPSPKAIPNGFGTSPLTPSARISALNIVGDLLRKVGALESKLAACRNFAKDQASRKSYISGNVNCGVLNGNGTKFSRSGHTSFFDKGAVNGFDPAPPPPGLGSSRPSSAPGMLPLSV
notes: Coupled to Magne HaloTag beads through the HaloTag; also called FL-Ndel1; Halo-Ndel1; source: Sf9 cells, purified (IgG Sepharose, TEV cleavage, size-exclusion chromatography); not shown: ZZ, N-terminal, cleaved; HaloTag, N-terminal, kept; His6, C-terminal, kept
B2: Halo-tagged full-length Ndel1 with the four CDK1 sites mutated to aspartic acid (S198D; T219D; S231D; S242D), with C-terminal 6X-His tag (natural protein, UniProt Q9GZM8 1-345, looked up)
chain: B1 chain with S198D, T219D, S231D, S242D
notes: Ndel1 with four phosphomimetic mutations; also called FL-Ndel1^PM; Ndel1^PM; source: Sf9, purified (IgG Sepharose, TEV cleavage, SEC); not shown: ZZ, N-terminal, cleaved; HaloTag, N-terminal, kept; His6, C-terminal, kept
B3: Full-length phosphomimetic Ndel1 (S198D; T219D; S231D; S242D) with N-terminal HaloTag and C-terminal 6X-His tag (natural protein, UniProt Q9GZM8 1-345, looked up)
chain: B1 chain with S198D, T219D, S231D, S242D
notes: Ndel1 with the four CDK1 sites changed to aspartic acid; also called FL-Ndel1PM; Halo-Ndel1PM; source: Sf9 cells, purified (IgG Sepharose, TEV cleavage, size-exclusion chromatography); not shown: ZZ, N-terminal, cleaved; HaloTag, N-terminal, kept; His6, C-terminal, kept
B4: Halo-tagged full-length Ndel1 with C-terminal 6X-His tag (natural protein, UniProt Q9GZM8 1-345, looked up)
chain: B1 chain
notes: Ndel1; 345 residues by the printed range 194-345; also called FL-Ndel1; ZZ-TEV-Halo-Ndel1-His6; source: Sf9, purified (IgG Sepharose, TEV cleavage, SEC); not shown: ZZ, N-terminal, cleaved; HaloTag, N-terminal, kept; His6, C-terminal, kept
B5: Halo-tagged Ndel1 with the C-terminal coiled coil (256-291) deleted, with C-terminal 6X-His tag (natural protein, UniProt Q9GZM8 1-345, looked up)
chain: MDGEDIPDFSSLKEETAYWKELSLKYKQSFQEARDELVEFQEGSRELEAELEAQLVQAEQRNRDLQADNQRLKYEVEALKEKLEHQYAQSYKQVSVLEDDLSQTRAIKEQLHKYVRELEQANDDLERAKRATIVSLEDFEQRLNQAIERNAFLESELDEKESLLVSVQRLKDEARDLRQELAVRERQQEVTRKSAPSSPTLDCEKMDSAVQASLSLPATPVGKGTENTFPSPKAIPNGFGTSPLTPSARISALNINCGVLNGNGTKFSRSGHTSFFDKGAVNGFDPAPPPPGLGSSRPSSAPGMLPLSV
notes: Ndel1 with residues 256-291 deleted; also called Ndel1^ΔCTCC; FL-Ndel1^ΔCTCC; source: Sf9, purified (IgG Sepharose, TEV cleavage, SEC); not shown: ZZ, N-terminal, cleaved; HaloTag, N-terminal, kept; His6, C-terminal, kept
B6: Lis1 (in solution) (natural protein, UniProt P43034 1-410, looked up)
chain: MVLSQRQRDELNRAIADYLRSNGYEEAYSVFKKEAELDVNEELDKKYAGLLEKKWTSVIRLQKKVMELESKLNEAKEEFTSGGPLGQKRDPKEWIPRPPEKYALSGHRSPVTRVIFHPVFSVMVSASEDATIKVWDYETGDFERTLKGHTDSVQDISFDHSGKLLASCSADMTIKLWDFQGFECIRTMHGHDHNVSSVAIMPNGDHIVSASRDKTIKMWEVQTGYCVKTFTGHREWVRMVRPNQDGTLIASCSNDQTVRVWVVATKECKAELREHEHVVECISWAPESSYSSISEATGSETKKSGKPGPFLLSGSRDKTIKMWDVSTGMCLMTLVGHDNWVRGVLFHSGGKFILSCADDKTLRVWDYKNKRCMKTLNAHEHFVTSLDFHKTAPYVVTGSVDQTVKVWECR
B7: Halo-Lis1 (natural protein, UniProt P43034 1-410, looked up)
chain: B6 chain
notes: Lis1; also called ZZ-TEV-Halo-Lis1; Lis1-conjugated beads; source: Sf9, purified (IgG Sepharose, TEV cleavage, SEC); not shown: ZZ, N-terminal, cleaved; HaloTag, N-terminal, kept
B8: Halo-tagged Ndel1(1-192), N-terminal coiled coil only, with C-terminal 6X-His tag (domain or fragment, UniProt Q9GZM8 1-192, looked up)
chain: MDGEDIPDFSSLKEETAYWKELSLKYKQSFQEARDELVEFQEGSRELEAELEAQLVQAEQRNRDLQADNQRLKYEVEALKEKLEHQYAQSYKQVSVLEDDLSQTRAIKEQLHKYVRELEQANDDLERAKRATIVSLEDFEQRLNQAIERNAFLESELDEKESLLVSVQRLKDEARDLRQELAVRERQQEVTR
notes: Ndel1 residues 1-192; also called NT-Ndel1; ZZ-TEV-Halo-Ndel1(1-192)-His6; source: Sf9, purified (IgG Sepharose, TEV cleavage, SEC); not shown: ZZ, N-terminal, cleaved; HaloTag, N-terminal, kept; His6, C-terminal, kept

One assay has as its target T1, Lis1 (UniProt P43034 1-410).
T1 construct: Lis1; also called ZZ-TEV-Lis1; source: Sf9 cells, purified (IgG Sepharose, TEV cleavage, size-exclusion chromatography); not shown: ZZ, N-terminal, cleaved
T1 sequence (looked up): B6 chain
Description: pull-down; depletion of 5 nM Lis1 from solution by Ndel1 coupled to Magne HaloTag beads; binding buffer with 150 mM KCl; SDS-PAGE densitometry of the supernatant; quadratic binding equation. As to conditions: both partners purified.

For the assay “Lis1 (in solution)”, the target named is B6. Put plainly: pull-down; quantitative depletion assay: Ndel1 construct on Magne HaloTag beads via the N-terminal HaloTag; 5 nM Lis1 in solution; binding buffer with 150 mM KCl; SDS-PAGE densitometry; quadratic binding equation. Particulars: both partners purified.
Assay [1] deals with T2, SNAP-tagged, recombinant full-length human cytoplasmic dynein-1 with all associated accessory chains (human, UniProt Q14204 1-4646; Q13409-3 1-612; O43237 1-492; P63172 1-113; Q9NP97 1-96; P63167 …). Description: cell-based or functional assay.
The target of assay [2] is T2, SNAP-tagged, recombinant full-length …. Put plainly: pull-down; quantitative depletion assay: 0-600 nM Ndel1 construct coupled to Magne HaloTag beads via the HaloTag; 5 nM dynein in solution, 45 min; binding buffer 30 mM Hepes pH 7.4, 36 mM KCl, 1 mM ADP, 1 mg/ml casein, 0.1% NP-40; supernatant on SDS-PAGE, densitometry; one-site fit with Bmax set to 1. As to conditions: both partners purified.

The target is the same in assay [3]. Description: pull-down; dynein-Lis1 binding curve (Fig. S4G); one-site fit with Bmax set to 1; who was on the beads is not told for this curve. Particulars: both partners purified.

Residue numbers refer to the chain shown, from its start. Numbers in names are those of the source.

As a reminder, the Kd is the equilibrium constant for the complex coming apart. For the molecule B1, the Kd with Lis1 is 4.6 nM.

Consider B2, for which, in the assay with Lis1 (in solution), the Kd is roughly 4 nM. For the same molecule, the “processive landing rate of DDB (smTIRF) with 50 nM FL-Ndel1^PM, against DDB alone” value in assay [1] came out at 10 fold reduction.

The molecule B3 showed a dissociation constant (Kd) in the assay with Lis1 of 3.9 nM.

As to B4, in the assay with Lis1 (in solution), the Kd was roughly 4 nM. In assay [1], the “landing rate of processive DDB events (smTIRF) with 300 nM FL-Ndel1, against DDB alone” value was roughly 5 fold reduction; the “processive landing rate of DDB (smTIRF) with 50 nM FL-Ndel1, against DDB alone” value was found to be 1.7 fold reduction; the “velocity of DDB (smTIRF) with 300 nM FL-Ndel1, against DDB alone” value was roughly 2 fold reduction. Also, the Kd in assay [2] was roughly 33 nM.

Regarding B5, the Kd in assay [2] is 55 nM.

For B6, the “landing rate of DDB (smTIRF) with 50 nM Lis1 and 50 nM FL-Ndel1^PM together, against DDB alone” value in assay [1] was roughly 2 fold reduction.

As to B7, the Kd in assay [3] was found to be 101 nM.

Take B8: the values for the Kd (with Lis1 (in solution); in assay [2]) were roughly 1.2 nM and 79 nM, respectively. For the same molecule, the “landing rate of processive DDB events (smTIRF) with 300 nM NT-Ndel1, against DDB alone” value in assay [1] is roughly 2 fold reduction. Also, the “velocity of DDB (smTIRF) with 300 nM NT-Ndel1, against DDB alone” value in assay [1] was roughly 2 fold reduction.

For the origin of these results see publication PMC10248797, “Ndel1 disfavors dynein–dynactin–adaptor complex formation in two distinct ways” (The Journal of Biological Chemistry, 2023).
